Reference: paper PMC6299097

Legend:
Assay in all cases: crystal structure; L1 pentamers (Cys175 to Ser, limited trypsin digestion) at ~5 mg/mL, vapour diffusion at 20 °C
[1] = target: H58-33BC chimeric L1 pentamer (Human papillomavirus type 58)
[2] = target: H58-33BC-52HI chimeric L1 pentamer (Human papillomavirus type 58)
[3] = target: HPV33 L1 pentamer (Human papillomavirus type 33)
[4] = target: HPV52 L1 pentamer (Human papillomavirus type 52)

Question: How did the stoichiometry N [1] turn out when H58-33BC chimeric L1 pentamer (complex) was run?
Answer: The stoichiometry N was 5.

Question: Which stoichiometry N [2] does the source give for “H58-33BC-52HI chimeric L1 pentamer (complex)” here?
Answer: The stoichiometry N was 5.

Question: With HPV33 L1 pentamer (complex) as the substance, how does the stoichiometry N [3] read?
Answer: The stoichiometry N was 5.

Question: With HPV52 L1 pentamer (complex) as the substance, how does the stoichiometry N [4] read?
Answer: The stoichiometry N was 5.
